Experimental findings from patent US20250388688A1 (ETHYREAL BIO, published 2025) are described below.

One may read the Kd as the concentration at which binding is half-saturated. A higher Kd goes with lower affinity. The koff is a measure of how fast the partners let go of each other. A lower koff goes with slow dissociation. Usually kon stands for a measure of how fast the partners come together.

For assay [1], the target named is T1, soluble TSHR protein (ELISA coat) (human, UniProt P16473 22-260, limits assumed). Put plainly: ELISA, plate coated with soluble TSHR, antibody at 100 nM, anti-human IgG Fc-HRP (blank 0.052). In general terms: In an ELISA, binding on a coated surface is turned into a signal by an enzyme label.
Assay [2] deals with T1, soluble TSHR protein (ELISA coat). Put plainly: ELISA, plate coated with soluble TSHR, antibody at 33.3 nM, anti-human IgG Fc-HRP (blank 0.051).
For assay [3] the target is unchanged. Briefly: ELISA, plate coated with soluble TSHR, antibody at 300 nM, anti-human IgG Fc-HRP (blank 0.055).
The target is the same in assay [4]. Put plainly: ELISA, plate coated with soluble TSHR, antibody at 100 nM, anti-human IgG Fc-HRP.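 Also: binding of antibody variants to soluble TSHR coated at 2 µg/ml, with colour developed using TMB substrate and stopped with H2SO4.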
Protocol: (§1) Select TSHR antibody variants were tested for their ability to bind TSHR in an ELISA. Briefly, soluble TSHR protein was coated onto a plate at 2 μg/ml in phosphate buffered saline (PBS). The plate was washed with PBS and blocked with 4% skim milk in PBS.
(§2) Following wash steps with 1×PBS-Tween 0.05%, bound human IgG was detected with peroxidase conjugated goat anti-human IgG (Fc specific)-HRP at 1:5000 dilution and the ELISA was developed with TMB reagent followed by H2SO4.
Assay [5] shares this target. Put plainly: ELISA, plate coated with soluble TSHR, antibody at 33.3 nM, anti-human IgG Fc-HRP.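 Also: binding of antibody variants to plate-bound soluble TSHR (coated at 2 µg/ml), with bound human IgG detected by HRP conjugate and colour developed using TMB substrate.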
Protocol: as §1, §2
Assay [6] deals with T2, Soluble TSHR (22-260) protein (human, UniProt P16473 22-260).
T2 construct: range 22-260
Put plainly: SPR (Biacore T200, 25 C), antibody captured on anti-human Fc, soluble TSHR (22-260) as analyte, 1:1 fit.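 Also: antibodies captured at 0.1 ug/mL on a CM5 sensor chip bearing anti-human Fc, with HBS-EP+ running buffer at pH 7.4.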 On the technique in general: SPR reads the build-up and loss of mass on a sensor chip optically.
Protocol: Measurements were taken on a Biacore T200 at 25 C using a CM5 chip coated with anti-human Fc. Test antibodies were captured at 0.1 ug/mL in HBS-EP+ (10 mM HEPES pH7.4, 150 mM NaCl, 3 mM EDTA, 0.05% Tween 20) assay buffer. […] A 1:1 binding kinetics fit was used to calculate kinetic parameters.

Assay [7] deals with T1, soluble TSHR protein (ELISA coat). Put plainly: ELISA, plate coated with soluble TSHR, antibody at 300 nM, anti-human IgG Fc-HRP.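 Also: TSHR coated at 2 µg/ml, bound antibody revealed by goat anti-human IgG Fc HRP, color developed with TMB and stopped with H2SO4.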
Protocol: as §1, §2

On to human IgG1 isotype control antibody, for which the ELISA (OD 450) at 100 nM in assay [1] amounted to 0.057 OD 450. In assay [2], this molecule displayed an ELISA (OD 450) at 33.3 nM of 0.063 OD 450. The molecule further showed an ELISA (OD 450) at 300 nM in assay [3] of 0.055 OD 450.

B1: TSHB-21 (antibody, V domains shown)
VH: EVQLVQSGAEVKKPGQSLKISCKASGYSLTDNWIGWVRQKPGKGLEWMGIIYPGDSDTRYSPSFQGQVTISADKSINTAYLQWSSLKASDTAIYYCVGLDWNYNPLRYWGPGTLVTVSS
VL: QSVLTQPPSVSAAPGQKVTISCSGSSSDIGSNYVSWYQQLPGTAPKLLIYDNNKRPSGIPDRFSGSKSGTSATLGITGLQTGDEADYYCATWDSRLGIAVFGGGTQLTVL
Consider B1, for which the “ELISA (OD 450) at 100 nM” value in assay [4] was 0.473 OD 450. For the same molecule, in assay [5], the “ELISA (OD 450) at 33.3 nM” value worked out at 0.395 OD 450. Further, in assay [6], the equilibrium dissociation constant (Kd) came to 3.1 nM, the koff is 0.000357 s⁻¹ and the kon was found to be 115000 M⁻¹ s⁻¹. Also, in assay [7], the “ELISA (OD 450) at 300 nM” value came to 0.552 OD 450.

B2: TSHB-24 (antibody, V domains shown)
VH: EVQLVQSGAEVKKPGESLKISCKASGYSLTDNWIGWVRQKPGKGLEWMGIIYPGDSDTRYSPSFQGQVTISADKSISTAYLQWSSLKASDTAIYYCVGLDWNYNPLRYWGQGTLVTVSS
VL: QSVLTQPPSVSGAPGQRVTISCSGSSSDIGSNYVSWYQQLPGTAPKLLIYDNNKRPSGVPDRFSGSKSGTSASLAITGLQAEDEADYYCGTWDSRLGIAVFGGGTKLTVL
For B2, the “ELISA (OD 450) at 100 nM” value in assay [4] is 0.49 OD 450. Further, the “ELISA (OD 450) at 33.3 nM” value in assay [5] was 0.425 OD 450. In assay [6], binding was characterised by a dissociation constant (Kd) of 2.7 nM, the koff amounted to 0.000348 s⁻¹ and the on-rate constant (kon) came to 129000 M⁻¹ s⁻¹. Further, the “ELISA (OD 450) at 300 nM” value in assay [7] worked out at 0.54 OD 450.

B3: TSHB-23 (antibody, V domains shown)
VH: EVQLVQSGAEVKKPGESLKISCKASGYSLTDNWIGWVRQKPGKGLEWMGIIYPGDSDTRYSPSFQGQVTISADKSISTAYLQWSSLKASDTAIYYCVGLDWNYNPLRYWGQGTLVTVSS
VL: QSVLTQPPSVSAAPGQKVTISCSGSSSDIGSNYVSWYQQLPGTAPKLLIYDNNKRPSGIPDRFSGSKSGTSATLGITGLQTGDEADYYCGTWDSRLGIAVFGGGTQLTVL
As to B3, the “ELISA (OD 450) at 100 nM” value in assay [4] came out at 0.466 OD 450. The “ELISA (OD 450) at 33.3 nM” value in assay [5] turned out to be 0.512 OD 450. In assay [6], this molecule displayed an equilibrium dissociation constant (Kd) of 2.45 nM, a koff of 0.000344 s⁻¹ and a kon of 141000 M⁻¹ s⁻¹. Besides, in assay [7], the “ELISA (OD 450) at 300 nM” value was 0.538 OD 450.
